In patent US10684274 (GEORGE WASHINGTON UNIVERSITY A CONGRESSIONALLY CHARTERED …, dated 2020):
Substitutions are numbered along the chain they refer to. Numbers in names are those of the source.

How the values were obtained:
[1] = biological target: endogenous calnexin (HEK293T and other human cells) (human) (UniProt P27824); test: co-immunoprecipitation with endogenous calnexin, HEK293T cells (FIG. 3A)
[2] = biological target: endogenous calnexin (HEK293T and other human cells) (human) (UniProt P27824); test: co-immunoprecipitation with endogenous calnexin, HEK293T cells transfected with mutant HIV-1 NL4-3 clone, immunoblot for Nef
[3] = biological target: endogenous calnexin (HEK293T and other human cells) (human) (UniProt P27824); test: co-immunoprecipitation from HEK293T cells transfected with HIV-1 molecular clones; IP of endogenous calnexin with anti-CNX antibody, western blot for Nef; relative to the Nef wt lane; no Nef band is visible in this lane
[4] = biological target: endogenous calnexin (HEK293T and other human cells) (human) (UniProt P27824); test: co-immunoprecipitation from HEK293T cells transfected with HIV-1 molecular clones; IP of endogenous calnexin with anti-CNX antibody, western blot for Nef; reference lane
[5] = biological target: T1, HA-tagged calnexin with deletion of the lumenal repeat segment (CNXΔ276-409) (human, UniProt P27824 21-592); test: co-immunoprecipitation with anti-HA beads from HEK293T lysates, immunoblot for Nef, densitometry
T1 construct: Made by restriction digest and re-ligation, so junction residues are not known
T1 sequence: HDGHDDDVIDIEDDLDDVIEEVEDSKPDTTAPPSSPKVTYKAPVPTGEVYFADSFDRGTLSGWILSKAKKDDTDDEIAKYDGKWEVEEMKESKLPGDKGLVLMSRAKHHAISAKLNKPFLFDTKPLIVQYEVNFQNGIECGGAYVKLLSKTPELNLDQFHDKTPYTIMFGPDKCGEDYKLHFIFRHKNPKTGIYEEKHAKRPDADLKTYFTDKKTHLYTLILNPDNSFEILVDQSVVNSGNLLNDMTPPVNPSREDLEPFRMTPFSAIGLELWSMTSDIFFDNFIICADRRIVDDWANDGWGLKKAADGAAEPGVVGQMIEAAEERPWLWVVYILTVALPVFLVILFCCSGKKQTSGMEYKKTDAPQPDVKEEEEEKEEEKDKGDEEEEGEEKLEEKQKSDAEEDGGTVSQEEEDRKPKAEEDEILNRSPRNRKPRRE

[6] = biological target: T2, HA-tagged calnexin with truncation of the C-terminal cytoplasmic domain (CNXΔ504-586) (human, UniProt P27824 21-592); test: as above
T2 sequence: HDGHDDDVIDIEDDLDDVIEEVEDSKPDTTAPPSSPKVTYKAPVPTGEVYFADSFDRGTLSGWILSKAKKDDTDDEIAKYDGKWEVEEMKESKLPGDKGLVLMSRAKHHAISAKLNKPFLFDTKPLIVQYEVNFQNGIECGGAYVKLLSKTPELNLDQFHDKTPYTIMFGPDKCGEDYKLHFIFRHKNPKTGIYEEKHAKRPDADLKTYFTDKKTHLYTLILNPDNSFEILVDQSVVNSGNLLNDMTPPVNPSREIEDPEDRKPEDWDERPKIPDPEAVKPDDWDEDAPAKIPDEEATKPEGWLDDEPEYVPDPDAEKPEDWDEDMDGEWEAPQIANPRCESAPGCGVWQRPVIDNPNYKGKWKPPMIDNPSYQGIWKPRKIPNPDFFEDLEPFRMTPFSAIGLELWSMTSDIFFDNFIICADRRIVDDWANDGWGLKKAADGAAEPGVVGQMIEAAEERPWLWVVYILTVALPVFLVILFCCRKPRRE

[7] = biological target: T3, endogenous calnexin (HEK293T and other human cells) (human, UniProt P27824 21-592); test: co-immunoprecipitation with endogenous calnexin, HEK293T cells, densitometry
T3 construct: Endogenous cellular protein, immunoprecipitated with a monoclonal anti-calnexin antibody or co-precipitated with HA-Nef; also called CNX
T3 sequence: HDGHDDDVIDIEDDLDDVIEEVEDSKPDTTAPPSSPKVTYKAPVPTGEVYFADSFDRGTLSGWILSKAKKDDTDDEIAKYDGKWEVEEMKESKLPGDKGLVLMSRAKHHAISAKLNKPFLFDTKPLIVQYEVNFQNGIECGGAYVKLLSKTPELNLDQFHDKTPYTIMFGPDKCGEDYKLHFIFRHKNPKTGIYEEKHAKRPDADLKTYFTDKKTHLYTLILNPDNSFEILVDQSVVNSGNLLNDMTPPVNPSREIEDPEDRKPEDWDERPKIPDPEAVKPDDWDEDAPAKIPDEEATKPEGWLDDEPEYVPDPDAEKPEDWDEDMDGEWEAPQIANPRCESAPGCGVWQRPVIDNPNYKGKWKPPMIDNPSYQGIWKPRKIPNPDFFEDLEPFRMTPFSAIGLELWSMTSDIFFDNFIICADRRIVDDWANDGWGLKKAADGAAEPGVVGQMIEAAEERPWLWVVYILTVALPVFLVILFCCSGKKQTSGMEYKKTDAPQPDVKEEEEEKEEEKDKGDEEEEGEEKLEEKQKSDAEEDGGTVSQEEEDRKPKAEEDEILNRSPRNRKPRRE

[8] = biological target: T3, endogenous calnexin (HEK293T and other …); test: co-immunoprecipitation from HEK293T cells transfected with pcDNA Nef plasmids; IP of endogenous calnexin with anti-CNX antibody, western blot for Nef; relative to the Nef wt lane
[9] = biological target: T4, ABCA1-FLAG (ATP-binding cassette A1 with FLAG tag) (UniProt O95477 1-2261); test: co-immunoprecipitation with ABCA1-FLAG (anti-FLAG beads), HEK293T cells, densitometry
T4 construct: whole, on cells; Immunoprecipitated with anti-FLAG beads from lysates; not shown: FLAG tag
T4 sequence (O95477 whole entry): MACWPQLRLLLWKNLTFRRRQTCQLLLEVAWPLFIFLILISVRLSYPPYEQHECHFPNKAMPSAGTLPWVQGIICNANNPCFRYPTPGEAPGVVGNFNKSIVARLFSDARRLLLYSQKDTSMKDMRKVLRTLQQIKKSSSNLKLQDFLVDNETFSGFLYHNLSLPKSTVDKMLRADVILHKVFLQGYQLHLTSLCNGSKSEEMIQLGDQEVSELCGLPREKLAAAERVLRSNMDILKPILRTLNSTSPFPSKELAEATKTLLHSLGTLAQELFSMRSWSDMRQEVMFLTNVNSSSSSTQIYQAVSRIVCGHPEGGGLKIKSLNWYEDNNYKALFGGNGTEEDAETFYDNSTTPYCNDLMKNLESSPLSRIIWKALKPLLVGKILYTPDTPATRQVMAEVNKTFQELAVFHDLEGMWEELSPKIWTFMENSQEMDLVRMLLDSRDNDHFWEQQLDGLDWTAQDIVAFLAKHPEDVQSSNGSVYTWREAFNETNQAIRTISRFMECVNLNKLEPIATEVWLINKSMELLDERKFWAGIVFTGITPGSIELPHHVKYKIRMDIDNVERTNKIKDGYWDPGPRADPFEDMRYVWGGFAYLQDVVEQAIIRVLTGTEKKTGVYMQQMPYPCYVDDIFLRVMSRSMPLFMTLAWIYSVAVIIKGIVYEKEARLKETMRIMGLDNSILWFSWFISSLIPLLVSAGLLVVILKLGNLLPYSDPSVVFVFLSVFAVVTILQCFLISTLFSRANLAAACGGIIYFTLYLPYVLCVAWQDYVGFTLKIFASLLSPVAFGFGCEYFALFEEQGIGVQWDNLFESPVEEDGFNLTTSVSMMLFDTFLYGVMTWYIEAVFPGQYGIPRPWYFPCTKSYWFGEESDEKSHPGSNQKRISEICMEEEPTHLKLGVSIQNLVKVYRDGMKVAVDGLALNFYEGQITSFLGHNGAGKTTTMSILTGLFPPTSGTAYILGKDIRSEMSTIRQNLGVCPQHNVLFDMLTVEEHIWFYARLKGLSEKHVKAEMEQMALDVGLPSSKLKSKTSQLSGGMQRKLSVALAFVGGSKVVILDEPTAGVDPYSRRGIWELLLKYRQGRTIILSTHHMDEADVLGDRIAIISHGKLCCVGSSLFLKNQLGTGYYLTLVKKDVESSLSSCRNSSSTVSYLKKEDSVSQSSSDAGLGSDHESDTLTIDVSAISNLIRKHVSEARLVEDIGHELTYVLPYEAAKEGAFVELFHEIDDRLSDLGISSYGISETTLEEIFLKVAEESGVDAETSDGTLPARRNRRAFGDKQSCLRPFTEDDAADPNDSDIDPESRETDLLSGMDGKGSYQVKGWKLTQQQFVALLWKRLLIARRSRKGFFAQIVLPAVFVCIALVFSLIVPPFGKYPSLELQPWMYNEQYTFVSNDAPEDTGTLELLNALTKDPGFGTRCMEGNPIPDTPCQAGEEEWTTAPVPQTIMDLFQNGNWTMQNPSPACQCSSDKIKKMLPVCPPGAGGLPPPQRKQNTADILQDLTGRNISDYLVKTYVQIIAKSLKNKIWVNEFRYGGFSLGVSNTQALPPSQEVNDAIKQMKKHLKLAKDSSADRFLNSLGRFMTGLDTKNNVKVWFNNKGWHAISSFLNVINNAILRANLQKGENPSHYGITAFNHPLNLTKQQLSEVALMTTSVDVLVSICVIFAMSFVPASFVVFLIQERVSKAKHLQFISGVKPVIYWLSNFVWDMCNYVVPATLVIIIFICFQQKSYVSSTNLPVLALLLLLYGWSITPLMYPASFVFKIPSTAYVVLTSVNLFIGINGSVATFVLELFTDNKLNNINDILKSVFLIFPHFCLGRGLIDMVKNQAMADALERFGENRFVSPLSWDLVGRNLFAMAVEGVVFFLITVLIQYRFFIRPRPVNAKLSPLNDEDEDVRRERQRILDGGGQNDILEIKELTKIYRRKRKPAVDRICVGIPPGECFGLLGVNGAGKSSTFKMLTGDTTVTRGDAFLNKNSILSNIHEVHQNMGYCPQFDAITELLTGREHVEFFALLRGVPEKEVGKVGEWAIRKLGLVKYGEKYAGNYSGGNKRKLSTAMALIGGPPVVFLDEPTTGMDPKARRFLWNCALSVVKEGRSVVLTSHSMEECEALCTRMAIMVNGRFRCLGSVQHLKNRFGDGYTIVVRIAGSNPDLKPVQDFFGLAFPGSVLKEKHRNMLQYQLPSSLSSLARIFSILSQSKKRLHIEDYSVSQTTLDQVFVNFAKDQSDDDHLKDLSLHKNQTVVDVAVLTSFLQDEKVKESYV

[10] = biological target: T3, endogenous calnexin (HEK293T and other …); test: co-immunoprecipitation with endogenous calnexin (monoclonal anti-calnexin), HEK293T cells, immunoblot for Nef
[11] = biological target: T5, myristoylated NefSF2 (HIV-1, UniProt P03407 2-210, myristoylated (site not given)); test: SPR, Biacore T-200, CNX-CT amine-coupled on CM5 chip, Nef as analyte, 25 C
T5 construct: Analyte in SPR

**Q.** How did the loss of interaction relative to Nef WT [1] turn out when “HIV-1 NL4-3 Nef K4,7A mutant (expressed from mutant HIV-1 NL4-3 clone)” was run?
**A.** > 95%

**Q.** What about the reduction of interaction relative to Nef WT [2] of the same molecule?
**A.** 95%

**Q.** And the relative amount of co-precipitated Nef (gel densitometry) [3]?
**A.** 0.05

**Q.** How did the relative amount of co-precipitated Nef (gel densitometry) [4] turn out when “HIV-1 NL4-3 Nef, wild type (expressed from HIV-1 NL4-3 molecular clone)” was run?
**A.** 1

B1: HIV-1 Nef, BRU isolate, wild type (NefBRU) (other)
chain: GGKWSKSSVVGWPTVRERMRRAEPAADGVGAASRDLEKHGAITSSNTAATNAACAWLEAQEEEEVGFPVTPQVPLRPMTYKAAVDLSHFLKEKGGLEGLIHSQRRQDILDLWIYHTQGYFPDWQNYTPGPGVRYPLTFGWCYKLVPVEPDKVEEANKGENTSLLHPVSLHGMDDPEREVLEWRFDSRLAFHHVARELHPEYFKNC
notes: whole, on cells; also called Nef WT; WT Nef
**Q.** What does the source list for B1?
**A.** reduction of binding relative to WT calnexin [5]: 40%; reduction of binding relative to WT calnexin [6]: 70%

B2: HIV-1 Nef BRU K4A mutant (NefK4A) (other)
chain: B1 chain with K3A
notes: whole, on cells; Expressed in HEK293T cells, co-immunoprecipitated from lysates
**Q.** What does the source list for B2?
**A.** reduction of interaction relative to WT Nef [7]: 50%; relative amount of co-precipitated Nef (gel densitometry) [8]: 0.5

B3: HIV-1 Nef BRU K4,7A double mutant (NefK4,7A, pcDNA plasmid) (other)
chain: B1 chain with K3A, K6A
notes: as for B2
**Q.** B3 was tested. Which “reduction of interaction relative to wild-type Nef” value [9] did it give?
**A.** ~30%

**Q.** Does B3 bind [10]?
**A.** no binding

**Q.** And the “relative amount of co-precipitated Nef (gel densitometry)” value [8]?
**A.** 0.01

B4: HIV-1 Nef BRU K7A mutant (NefK7A) (other)
chain: B1 chain with K6A
notes: as for B2
**Q.** For B4, which “reduction of interaction relative to WT Nef” value [7] is on record?
**A.** 90%

**Q.** What about the “relative amount of co-precipitated Nef (gel densitometry)” value [8] of the same molecule?
**A.** 0.1

B5: recombinant calnexin cytoplasmic tail (CNX-CT), N-terminal His-tag and SUMO domain, purified from E. coli (other)
chain: HHHHHHHHCSGKKQTSGMEYKKTDAPQPDVKEEEEEKEEEKDKGDEEEEGEEKLEEKQKSDAEEDGGTVSQEEEDRKPKAEEDEILNRSPRNRKPRRE
notes: also called cytoplasmic tail of CNX; C-terminal (cytoplasmic) domain of CNX
**Q.** Which Kd [11] does the source give for B5 here?
**A.** 9.4 nM

**Q.** And the koff [11]?
**A.** 0.00857 s⁻¹

**Q.** What about the kon [11] of the same molecule?
**A.** 908000 M⁻¹ s⁻¹
